Results from patent US20160002619A1 (CORNELL UNIVERSITY, published 2016).

Assays:
[1] = biological target: the molecule itself; assay: SEC-MALS, self-association
From the text: FIGS. 4A-F define the oligomeric species of GAC mutants. In particular, multi-angle light scattering profiles of WT-GAC (FIG. 4A), D391K-GAC (FIG. 4B), K316E-D391K-R459E-GAC (FIG. 4C), and K316E-GAC (FIG. 4D) were obtained following SEC and subsequent MALS analysis, where elution of each species was monitored using refractive index (left axis). Upon elution, light scattering data was collected and then used to calculate the molecular weight and polydispersity for the species eluted (right axis). Reference lines for the molecular weights of the monomer, dimer, and tetramer forms of GAC are included at 58 kD, 116 kD, and 230 kD respectively. […]
Purified GAC and GAC mutants were subjected to analytical size exclusion chromatography on a Superdex 200 10/300 GL column (GE Healthcare) equilibrated with 20 mM Tris-HCl pH 8.5, 200 mM NaCl for experiments in the absence of inorganic phosphate and 20 mM Tris-HCl pH 8.5, 200 mM NaCl, 50 mM K₂HPO₄ for experiments in the presence of inorganic phosphate at a temperature of 4° C. and flow rate of 0.4 ml/min. […] RMS radius and mass distribution (polydispersity) was analyzed using the ASTRA software using monomeric BSA (Sigma) to normalize the light scattering signal.

[2] = biological target: the molecule itself; assay: analytical gel filtration (Superdex 200 10/300 GL), self-association
Description: FIGS. 3A-C illustrate that WT GAC accesses monomer, dimer, and larger oligomeric species in a concentration and phosphate dependent manner.
Purified GAC and GAC mutants were subjected to analytical size exclusion chromatography on a Superdex 200 10/300 GL column (GE Healthcare) equilibrated with 20 mM Tris-HCl pH 8.5, 200 mM NaCl for experiments in the absence of inorganic phosphate and 20 mM Tris-HCl pH 8.5, 200 mM NaCl, 50 mM K₂HPO₄ for experiments in the presence of inorganic phosphate at a temperature of 4° C. and flow rate of 0.4 ml/min. Protein concentrations were prepared to be either 5 mg/mL or 0.5 mg/mL and centrifuged at 10,000×g for 10 minutes prior to injecting 200 μL of each sample. The same protocol was followed for MALS analysis. Briefly, 50 μL samples of 0.5, 5, or 10 mg/mL GAC was injected onto a WTC-030S5 size exclusion column (Wyatt technology) coupled to a static 18-angle light scattering detector (DAWN HELEOS-II) and a refractive index detector (OptiLab T-rEX, Wyatt Technology) kept at 23° C. The flow rate was kept at 1 mL/min. RMS radius and mass distribution (polydispersity) was analyzed using the ASTRA software using monomeric BSA (Sigma) to normalize the light scattering signal.

[3] = biological target: the molecule itself; assay: preparative Superdex200 gel filtration, self-association
[4] = biological target: T1, ALEXA FLUOR 488-labeled wild type mouse KGA (kidney type glutaminase isoform 1, residues 72-674) (mouse, UniProt D3Z7P3 72-674, ALEXA FLUOR 488 succinimidyl ester covalently attached to a lysine amino group (exact residue not given)); assay: FRET time course: quenching of 10 nM 488-KGA fluorescence by QSY 9-KGA, then 10-fold excess unlabeled WT-KGA [panel a]
T1 construct: Recombinant; His-tag cleaved with thrombin
T1 sequence: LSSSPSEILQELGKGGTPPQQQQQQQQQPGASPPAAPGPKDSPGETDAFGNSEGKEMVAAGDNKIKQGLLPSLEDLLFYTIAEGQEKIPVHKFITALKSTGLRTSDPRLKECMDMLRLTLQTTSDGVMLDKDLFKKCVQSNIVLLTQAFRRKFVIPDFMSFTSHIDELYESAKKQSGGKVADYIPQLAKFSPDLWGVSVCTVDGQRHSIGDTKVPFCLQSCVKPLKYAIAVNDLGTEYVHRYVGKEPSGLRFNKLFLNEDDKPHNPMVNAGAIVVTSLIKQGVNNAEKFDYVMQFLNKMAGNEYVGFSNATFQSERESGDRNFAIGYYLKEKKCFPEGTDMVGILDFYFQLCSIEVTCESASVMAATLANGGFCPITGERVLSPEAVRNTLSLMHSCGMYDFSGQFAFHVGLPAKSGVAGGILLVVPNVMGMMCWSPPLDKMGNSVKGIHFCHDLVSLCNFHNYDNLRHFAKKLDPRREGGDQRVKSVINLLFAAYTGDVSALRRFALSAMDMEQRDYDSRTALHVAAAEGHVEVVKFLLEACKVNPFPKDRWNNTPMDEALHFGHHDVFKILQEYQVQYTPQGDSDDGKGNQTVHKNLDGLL
Description: FIGS. 9A-B illustrate that the alternate splice variant KGA behaves like GAC in a FRET assay. […] After 5 minutes, the appropriate volume of 33.25 μM (for concentrations up to 200 nM labeled protein) or 69.5 μM (for concentrations above 200 nM labeled protein) unlabeled WT-KGA was added to make the final concentration of unlabeled KGA to be ten-times the concentration of labeled KGA.

B1: unlabeled wild type mouse GAC (glutaminase C, residues 72-603) (enzyme)
chain: LSSSPSEILQELGKGGTPPQQQQQQQQQPGASPPAAPGPKDSPGETDAFGNSEGKEMVAAGDNKIKQGLLPSLEDLLFYTIAEGQEKIPVHKFITALKSTGLRTSDPRLKECMDMLRLTLQTTSDGVMLDKDLFKKCVQSNIVLLTQAFRRKFVIPDFMSFTSHIDELYESAKKQSGGKVADYIPQLAKFSPDLWGVSVCTVDGQRHSIGDTKVPFCLQSCVKPLKYAIAVNDLGTEYVHRYVGKEPSGLRFNKLFLNEDDKPHNPMVNAGAIVVTSLIKQGVNNAEKFDYVMQFLNKMAGNEYVGFSNATFQSERESGDRNFAIGYYLKEKKCFPEGTDMVGILDFYFQLCSIEVTCESASVMAATLANGGFCPITGERVLSPEAVRNTLSLMHSCGMYDFSGQFAFHVGLPAKSGVAGGILLVVPNVMGMMCWSPPLDKMGNSVKGIHFCHDLVSLCNFHNYDNLRHFAKKLDPRREGGDQRHSFGPLDYESLQQELALKDTVWKKVSPESSDDTSTTVVYRMESLGERS
notes: Recombinant; His-tag cleaved with thrombin; The oligomeric state depends on concentration and phosphate; also called WT-GAC; WT GAC
[1]
  binding result: binds
other
  concentration dependent activation of WT-GAC (glutaminase activity, two-step assay, no phosphate): The quenching was shown to be concentration dependent with the resultant FRET titration curve strongly correlating with the concentration dependent activation of WT-GAC
  glutaminase specific activity (µM Glu/µM GAC min) of 50 nM WT-GAC, two-step assay, 20 mM glutamine, phosphate varied: specific activity (filled circles) rises from about 500 near 3 mM phosphate to about 5000 at 20 mM and 8000 at 45 mM; it is flat at about 8700 from 67 to 150 mM
  glutaminase specific activity (µM Glu/µM GAC min), two-step assay, 20 mM glutamine, no phosphate: specific activity (filled circles) rises from about 100 at 50 nM GAC to about 290 at 230 nM, 410 at 510 nM and about 460-470 at 770 and 1150 nM, lying on the FRET points

B2: unlabeled mouse GAC D391K (constitutive dimer mutant) (enzyme)
chain: LSSSPSEILQELGKGGTPPQQQQQQQQQPGASPPAAPGPKDSPGETDAFGNSEGKEMVAAGDNKIKQGLLPSLEDLLFYTIAEGQEKIPVHKFITALKSTGLRTSDPRLKECMDMLRLTLQTTSDGVMLDKDLFKKCVQSNIVLLTQAFRRKFVIPDFMSFTSHIDELYESAKKQSGGKVADYIPQLAKFSPDLWGVSVCTVDGQRHSIGDTKVPFCLQSCVKPLKYAIAVNDLGTEYVHRYVGKEPSGLRFNKLFLNEDDKPHNPMVNAGAIVVTSLIKQGVNNAEKFDYVMQFLNKMAGNEYVGFSNATFQSERESGKRNFAIGYYLKEKKCFPEGTDMVGILDFYFQLCSIEVTCESASVMAATLANGGFCPITGERVLSPEAVRNTLSLMHSCGMYDFSGQFAFHVGLPAKSGVAGGILLVVPNVMGMMCWSPPLDKMGNSVKGIHFCHDLVSLCNFHNYDNLRHFAKKLDPRREGGDQRHSFGPLDYESLQQELALKDTVWKKVSPESSDDTSTTVVYRMESLGERS
notes: also called D391K-GAC
[2]
  binding result: binds
other
  concentration dependent activation (glutaminase activity, 20 mM glutamine, no phosphate): no concentration dependent activation was observed of purified GAC mutants

B3: Δ72 K316E-GAC (enzyme)
glutaminase C subunit: LSSSPSEILQELGKGGTPPQQQQQQQQQPGASPPAAPGPKDSPGETDAFGNSEGKEMVAAGDNKIKQGLLPSLEDLLFYTIAEGQEKIPVHKFITALKSTGLRTSDPRLKECMDMLRLTLQTTSDGVMLDKDLFKKCVQSNIVLLTQAFRRKFVIPDFMSFTSHIDELYESAKKQSGGKVADYIPQLAKFSPDLWGVSVCTVDGQRHSIGDTKVPFCLQSCVKPLKYAIAVNDLGTEYVHRYVGEEPSGLRFNKLFLNEDDKPHNPMVNAGAIVVTSLIKQGVNNAEKFDYVMQFLNKMAGNEYVGFSNATFQSERESGDRNFAIGYYLKEKKCFPEGTDMVGILDFYFQLCSIEVTCESASVMAATLANGGFCPITGERVLSPEAVRNTLSLMHSCGMYDFSGQFAFHVGLPAKSGVAGGILLVVPNVMGMMCWSPPLDKMGNSVKGIHFCHDLVSLCNFHNYDNLRHFAKKLDPRREGGDQRHSFGPLDYESLQQELALKDTVWKKVSPESSDDTSTTVVYRMESLGERS
notes: Unlabeled single mutant of the mouse GAC construct
[1]
  binding result: binds

B4: unlabeled mouse GAC K316E/D391K/R459E (constitutive monomer mutant) (enzyme)
chain: LSSSPSEILQELGKGGTPPQQQQQQQQQPGASPPAAPGPKDSPGETDAFGNSEGKEMVAAGDNKIKQGLLPSLEDLLFYTIAEGQEKIPVHKFITALKSTGLRTSDPRLKECMDMLRLTLQTTSDGVMLDKDLFKKCVQSNIVLLTQAFRRKFVIPDFMSFTSHIDELYESAKKQSGGKVADYIPQLAKFSPDLWGVSVCTVDGQRHSIGDTKVPFCLQSCVKPLKYAIAVNDLGTEYVHRYVGEEPSGLRFNKLFLNEDDKPHNPMVNAGAIVVTSLIKQGVNNAEKFDYVMQFLNKMAGNEYVGFSNATFQSERESGKRNFAIGYYLKEKKCFPEGTDMVGILDFYFQLCSIEVTCESASVMAATLANGGFCPITGERVLSPEAVENTLSLMHSCGMYDFSGQFAFHVGLPAKSGVAGGILLVVPNVMGMMCWSPPLDKMGNSVKGIHFCHDLVSLCNFHNYDNLRHFAKKLDPRREGGDQRHSFGPLDYESLQQELALKDTVWKKVSPESSDDTSTTVVYRMESLGERS
notes: also called K316E-D391K-R459E-GAC; monomeric GAC (K316E-D391K-R459E)
[3]
  binding result: no binding
other
  concentration dependent activation (glutaminase activity, 20 mM glutamine, no phosphate): no concentration dependent activation was observed of purified GAC mutants

B5: QSY 9-labeled wild type mouse KGA (kidney type glutaminase isoform 1, residues 72-674) (enzyme)
chain: LSSSPSEILQELGKGGTPPQQQQQQQQQPGASPPAAPGPKDSPGETDAFGNSEGKEMVAAGDNKIKQGLLPSLEDLLFYTIAEGQEKIPVHKFITALKSTGLRTSDPRLKECMDMLRLTLQTTSDGVMLDKDLFKKCVQSNIVLLTQAFRRKFVIPDFMSFTSHIDELYESAKKQSGGKVADYIPQLAKFSPDLWGVSVCTVDGQRHSIGDTKVPFCLQSCVKPLKYAIAVNDLGTEYVHRYVGKEPSGLRFNKLFLNEDDKPHNPMVNAGAIVVTSLIKQGVNNAEKFDYVMQFLNKMAGNEYVGFSNATFQSERESGDRNFAIGYYLKEKKCFPEGTDMVGILDFYFQLCSIEVTCESASVMAATLANGGFCPITGERVLSPEAVRNTLSLMHSCGMYDFSGQFAFHVGLPAKSGVAGGILLVVPNVMGMMCWSPPLDKMGNSVKGIHFCHDLVSLCNFHNYDNLRHFAKKLDPRREGGDQRVKSVINLLFAAYTGDVSALRRFALSAMDMEQRDYDSRTALHVAAAEGHVEVVKFLLEACKVNPFPKDRWNNTPMDEALHFGHHDVFKILQEYQVQYTPQGDSDDGKGNQTVHKNLDGLL
modifications: QSY 9 succinimidyl ester covalently attached to a lysine amino group (exact residue not given)
notes: Recombinant; His-tag cleaved with thrombin; also called QSY 9-KGA
[4]
  binding result: binds
